# Source: patent US9796965B2, “Use of Taq polymerase mutant enzymes for nucleic acid amplification in the presence of PCR inhibitors” (DNA Polymerase Technology Inc., priority 2006, dated 2017)
# Entries after “also recorded” stand apart in the source; their conditions may differ.
# B1: FLAC-22: SEQ ID NO: 2; full-length Taq with substitutions E626K, I707L, E708N (protein)
# chain: MRGMLPLFEPKGRVLLVDGHHLAYRTFHALKGLTTSRGEPVQAVYGFAKSLLKALKEDGDAVIVVFDAKAPSFRHEAYGGYKAGRAPTPEDFPRQLALIKELVDLLGLARLEVPGYEADDVLASLAKKAEKEGYEVRILTADKDLYQLLSDRIHVLHPEGYLITPAWLWEKYGLRPDQWADYRALTGDESDNLPGVKGIGEKTARKLLEEWGSLEALLKNLDRLKPAIREKILAHMDDLKLSWDLAKVRTDLPLEVDFAKRREPDRERLRAFLERLEFGSLLHEFGLLESPKALEEAPWPPPEGAFVGFVLSRKEPMWADLLALAAARGGRVHRAPEPYKALRDLKEARGLLAKDLSVLALREGLGLPPGDDPMLLAYLLDPSNTTPEGVARRYGGEWTEEAGERAALSERLFANLWGRLEGEERLLWLYREVERPLSAVLAHMEATGVRLDVAYLRALSLEVAEEIARLEAEVFRLAGHPFNLNSRDQLERVLFDELGLPAIGKTEKTGKRSTSAAVLEALREAHPIVEKILQYRELTKLKSTYIDPLPDLIHPRTGRLHTRFNQTATATGRLSSSDPNLQNIPVRTPLGQRIRRAFIAEEGWLLVALDYSQIELRVLAHLSGDKNLIRVFQEGRDIHTETASWMFGVPREAVDPLMRRAAKTINFGVLYGMSAHRLSQELAIPYEEAQAFIERYFQSFPKVRAWLNKTLEEGRRRGYVETLFGRRRYVPDLEARVKSVREAAERMAFNMPVQGTAADLMKLAMVKLFPRLEEMGARMLLQVHDELVLEAPKERAEAVARLAKEVMEGVYPLAVPLEVEVGIGEDWLSAKE
# modifications: FLAC-22
# notes: full-length Taq with substitutions E626K, I707L, E708N
# B2: KlenTaq-10: SEQ ID NO: 1; N-terminal deletion at 278 of full-length wild type Taq with substitutions E626K, I707L, E708K (protein)
# chain: MGLLHEFGLLESPKALEEAPWPPPEGAFVGFVLSRKEPMWADLLALAAARGGRVHRAPEPYKALRDLKEARGLLAKDLSVLALREGLGLPPGDDPMLLAYLLDPSNTTPEGVARRYGGEWTEEAGERAALSERLFANLWGRLEGEERLLWLYREVERPLSAVLAHMEATGVRLDVAYLRALSLEVAEEIARLEAEVFRLAGHPFNLNSRDQLERVLFDELGLPAIGKTEKTGKRSTSAAVLEALREAHPIVEKILQYRELTKLKSTYIDPLPDLIHPRTGRLHTRFNQTATATGRLSSSDPNLQNIPVRTPLGQRIRRAFIAEEGWLLVALDYSQIELRVLAHLSGDKNLIRVFQEGRDIHTETASWMFGVPREAVDPLMRRAAKTINFGVLYGMSAHRLSQELAIPYEEAQAFIERYFQSFPKVRAWLKKTLEEGRRRGYVETLFGRRRYVPDLEARVKSVREAAERMAFNMPVQGTAADLMKLAMVKLFPRLEEMGARMLLQVHDELVLEAPKERAEAVARLAKEVMEGVYPLAVPLEVEVGIGEDWLSAKE
# modifications: Klentaq-10
# notes: N-terminal deletion at 278 of full-length wild type Taq with substitutions E626K, I707L, E708K
# B3: wild type KlenTaq: SEQ ID NO: 3; N-terminal deletion at 278 of full-length Taq, Met/Gly replacing amino acids 279 and 280 (protein)
# chain: MGLLHEFGLLESPKALEEAPWPPPEGAFVGFVLSRKEPMWADLLALAAARGGRVHRAPEPYKALRDLKEARGLLAKDLSVLALREGLGLPPGDDPMLLAYLLDPSNTTPEGVARRYGGEWTEEAGERAALSERLFANLWGRLEGEERLLWLYREVERPLSAVLAHMEATGVRLDVAYLRALSLEVAEEIARLEAEVFRLAGHPFNLNSRDQLERVLFDELGLPAIGKTEKTGKRSTSAAVLEALREAHPIVEKILQYRELTKLKSTYIDPLPDLIHPRTGRLHTRFNQTATATGRLSSSDPNLQNIPVRTPLGQRIRRAFIAEEGWLLVALDYSQIELRVLAHLSGDENLIRVFQEGRDIHTETASWMFGVPREAVDPLMRRAAKTINFGVLYGMSAHRLSQELAIPYEEAQAFIERYFQSFPKVRAWIEKTLEEGRRRGYVETLFGRRRYVPDLEARVKSVREAAERMAFNMPVQGTAADLMKLAMVKLFPRLEEMGARMLLQVHDELVLEAPKERAEAVARLAKEVMEGVYPLAVPLEVEVGIGEDWLSAKE
# modifications: Klentaq-1
# Assays:
# [1] = Functional analysis of codon 708 saturated mutagenesis variants for resistance to PCR inhibitors; assay type: biochemical; conditions: for functionality of the 708 substitution: KlenTaq or full-length Taq background
# Protocol: Single amino acid changes of the wild type Taq Glu708 were implicated in both selected qualities of the mutants, blood and soil-resistance.
# Saturated mutagenesis was performed at codon 708 of Taq to test functionally the full spectrum of all possible substitutions at this critical position.
# [2] = test system: 0.6 kbp Bacillus cereus target DNA; test: Real-time PCR of 0.6 kbp Bacillus cereus target challenged with two-fold SYBR green dilutions; conditions: for SYBR concentration above which amplification failed / SYBR concentration in the presence of which the 0.6 kbp Bacillus cereus target DNA was amplified: 2.5 units enzyme per 50 ul, 20 pg genomic DNA, 40 cycles, no blood
# [3] = test system: 0.32 kbp 16S microbial target; test: Real-time PCR of 16S microbial target double challenged with 5% blood and SYBR green dilutions; conditions: for amplification under double challenge: SYBR green dilutions from 32×, 40 cycles
# [4] = test system: 630 bp CCR5 gene target; test: Real-time PCR of human CCR5 target mixed with crude soil extract and SYBR titration; assay type: biochemical; conditions: 4 ng human DNA mixed with crude soil extract, SYBR titrated
# Protocol: A 630 bp CCR5 gene target was amplified from 4 ng of human DNA mixed with crude soil extract and various amounts of SYBR. Klentaq-10 mutant enzyme was compared to it's wild type precursor, and FLAC-22 (SEQ ID NO: 2) was compared to the wild type Fast Start Taq polymerase (Roche). SYBR Green fluorescent dye was titrated to optimize the fluorescent signal for real time detection. PCR was performed in real-time cycler Opticon2, and the amplified products were analyzed both by gel electrophoresis (bottom panels) and SYBR Green dye melting curve profile (top panels).
# [5] = test system: anthrax genome target (1.3 kb Bacillus anthracis); assay type: biochemical; conditions: 5% human blood, 32× SYBR Green
# [6] = test system: 0.25 kbp Lambda specific target; test: Real-time PCR of Lambda target challenged with two-fold SYBR green dilutions; conditions: for SYBR concentration in the presence of which the 0.25 kbp lambda target was amplified: purified DNA template, 2.5 units per 50 ul, 35 cycles
# [7] = test system: 244 bp influenza virus target; assay type: biochemical; conditions: 5% human serum, 200 μM TaqMan probe, PEC-Plus enhancer
# [8] = test system: 244 bp influenza virus RNA target; assay type: biochemical; conditions: purified RNA and mimic crude samples with 8% plasma, serum, whole blood; PEC-Plus enhancer
# [9] = test system: 0.6 kbp Bacillus cereus target DNA; test: Real-time PCR of Bacillus cereus target double challenged with 5% and 10% blood and SYBR green dilutions
# [10] = test system: endogenous 600 bp target of Bacillus Cereus; test: Real-time PCR of endogenous Bacillus Cereus target from crude soil extract; assay type: biochemical; conditions: soil extract 16%, 8%, 4%, 2%
molecule,measurement,setting,value
FLAC-3: full-length Taq mutant with Q substitution at 708,functionality of the 708 substitution,[1],only functional in Taq
FLAC-4: full-length Taq mutant with I substitution at 708,functionality of the 708 substitution,[1],only functional in Taq
"FLAC-10: full-length Taq mutant with K substitution at 708, corresponding to Klentaq10",functionality of the 708 substitution,[1],efficient
"FLAC-12: full-length Taq mutant with L substitution at 708, corresponding to Klentaq 12",functionality of the 708 substitution,[1],efficient
Fast Start Taq: commercial wild type Taq enzyme (Roche),SYBR concentration above which amplification failed,[2],higher than 0.2 ×
same,post PCR melting curve analysis,[3]; 5% blood,did do not show the correct melting temperature of the product at all
same,amplification under double challenge,[3]; 5% blood,able to amplify only the positive control
same,melting curve profile in crude soil samples,[4],showed a melting curve at very low SYBR concentration
B1,SYBR concentration in the presence of which the 0.6 kbp Bacillus cereus target DNA was amplified,[2],1.6 ×
same,amplification/detection of Bacillus anthracis target in blood,[5],successful real-time PCR detection
same,resistance to PCR inhibitors among all 708 mutant variants,[1],superior in all aspects of inhibitors resistance to PCR inhibitors
same,functionality of the 708 substitution,[1],only functional in Taq
same,SYBR concentration in the presence of which the 0.25 kbp lambda target was amplified,[6],2 ×
same,resistance toward SYBR green,[6]; without blood in the reaction (comparison value given in Example 4),2 ×
same,real-time RT-PCR TaqMan detection of influenza virus gene,[7],work in RT-PCR TaqMan assays
same,amplification under double challenge,[3]; 5% blood,capable of amplifying with all SYBR concentrations
same,SYBR green necessary for real-time PCR detection,"[3]; 5% blood, melting curve analysis",at least 4 ×
same,resistance toward SYBR green,[3]; with 5% blood in the reaction,at least 32 ×
same,RT-PCR amplification of influenza virus gene,[8],work in RT-PCR
B2,SYBR concentration in the presence of which the 0.6 kbp Bacillus cereus target DNA was amplified,[2],4 ×
same,resistance toward SYBR green,[2]; no blood in the reaction (comparison value given in Example 3),4 ×
same,amplification/detection of Bacillus anthracis target in blood,[5],specifically amplified the target in 5% blood
same,resistance to PCR inhibitors among all 708 mutant variants,[1],superior in all aspects of inhibitors resistance to PCR inhibitors
same,functionality of the 708 substitution,[1],efficient
same,SYBR concentration allowing amplification compared to wild type KlenTaq,"[9]; 5% and 10% blood, SYBR dilutions from 64×",at least two times higher concentration of SYBR
same,resistance toward SYBR green,"[9]; with blood (5%, 10%) in the reaction",at least 64 ×
same,SYBR concentration in the presence of which the 0.25 kbp lambda target was amplified,[6],at least 4 ×
same,real-time RT-PCR TaqMan detection of influenza virus gene,[7],work in RT-PCR TaqMan assays
same,amplification in the presence of crude soil extract,[10],outperforming the two commercial Tags; also recorded: amplified successfully
same,RT-PCR amplification of influenza virus gene,[8],work in RT-PCR
B3,SYBR concentration above which amplification failed,[2],higher than 1 ×
same,melting curve profile in crude soil samples,[4],showed a melting curve at very low SYBR concentration
